The values that follow come from article PMC12708450.

This data set addresses PD-L1 (recombinant human) (Homo sapiens) (UniProt Q9NZQ7). In words: ELONA. Conditions: 1:1 hyperbolic fit; internal C3 spacer (iSpC3) between DNA nt 63 and RNA nt 1 (strand position 64); nt 1-63 DNA, nt 64-82 RNA; strand 2 RNA; ELONA: PD-L1 coated in PBS at 4 C overnight; blocked with PBS, 0.1% Tween 20, 1% BSA; wash PBS, 1 mM MgCl2, 0.1% Tween 20, 0.1% BSA; oligo heated 95 C 10 min ….

Chain of PD-L1 (recombinant human) (Homo sapiens) (Q9NZQ7 19-238): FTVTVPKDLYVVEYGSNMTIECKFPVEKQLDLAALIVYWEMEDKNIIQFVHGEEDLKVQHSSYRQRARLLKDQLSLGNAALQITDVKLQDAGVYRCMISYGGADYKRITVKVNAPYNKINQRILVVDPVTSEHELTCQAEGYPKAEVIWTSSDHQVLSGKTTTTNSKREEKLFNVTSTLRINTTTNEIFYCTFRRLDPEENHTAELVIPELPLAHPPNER

As a reminder, the Kd is the free concentration of one partner at which half of the binding sites on the other are occupied at equilibrium, for simple one-to-one binding. For “ACCGACCGTGCTGGACTCATCTCGCTTTTTTCACGGTCCACACTACTATGAGCGAGCCTGGCGGGAAUGACCUCUUUCACCA / UGGUGAAAGAGGUCAUUCC [PD-L1 aptamer-CD47 siRNA chimera]”, the Kd was determined as 0.174 µM.
